B1: ZER1 (parent)
chain: PILRLLPQGISPVSQHWATWALYN

Variants of: B1
Assay: protein stability index of a GFP-peptide fusion (GPS, HEK-293T) (PSI 1-6); higher = more stable
Conditions: c terminus: a fixed tail appended
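Note: lentivirally expressed fusions sorted by FACS into six bins by GFP to DsRed ratio, PSI derived from sequencing read proportions per bin multiplied by bin number.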

Row | Variant | protein stability index
1 | PILRLLPQGISPVSEHWATWALYN [Q15E] | 2.19
2 | PILRLLPQGISPVSKHWATWALYN [Q15K] | 2.97
3 | PILRLLPQGISPVSQHWATWPLYN [A21P] | 2.65
4 | PILRLLPQGISPVSQHWATWILYN [A21I] | 3.15
5 | PILRLLPQGISPVSQHWATWSLYN [A21S] | 2.6
6 | PILRLLPQGISPVSQHWATWKLYN [A21K] | 2.07
7 | PILRLLPQGISPVSQHWATWMLYN [A21M] | 3.29
8 | PILRLLPQGISPVSQHWATWCLYN [A21C] | 2.69
9 | PILRLLPQGISPVSQHWATWTLYN [A21T] | 2.57
10 | PILRLLPQGISPVSQHWATWRLYN [A21R] | 1
11 | PILRLLPQGISPVSQHWATWVLYN [A21V] | 3.96
12 | PILRLLPQGISPVSQHWATWELYN [A21E] | 2.6
13 | PILRLLPQGISPVSQHWATWNLYN [A21N] | 1.76
14 | PILRLLPQGISPVSQHWATWQLYN [A21Q] | 3.72
15 | PILRLLPQGISPVSQHWATWYLYN [A21Y] | 4.95
16 | PILRLLPQGISPVSQHWATWLLYN [A21L] | 2.38
17 | PILRLLPQGISPVSQHWATWDLYN [A21D] | 2.79
18 | PILRLLPQGISPVSQHWATWWLYN [A21W] | 2.29
19 | PILRLLPQGISPVSQHWATWFLYN [A21F] | 2.7
20 | PILRLLPQGISPVSQHWATTALYN [W20T] | 3.72
21 | PILRLLPQGISPVSQHWATSALYN [W20S] | 2.41
22 | PILRLLPQGISPVSQHWATGALYN [W20G] | 1.37
23 | PILRLLPQGISPVSQHWATFALYN [W20F] | 3.5
24 | PILRLLPQGISPVSQHWATPALYN [W20P] | 2.79

Row | Variant | protein stability index
25 | PILRLLPQGISPVSQHWATDALYN [W20D] | 2.6
26 | PILRLLPQGISPVSQHWATCALYN [W20C] | 3.55
27 | PILRLLPQGISPVSQHWATYALYN [W20Y] | 2.5
28 | PILRLLPQGISPVSQHWATKALYN [W20K] | 1.28
29 | PILRLLPQGISPVSQHWATNALYN [W20N] | 2.09
30 | PILRLLPQGISPVSQHWATRALYN [W20R] | 1.64
31 | PILRLLPQGISPVSQHWATEALYN [W20E] | 1.58
32 | PILRLLPQGISPVSQHWATIALYN [W20I] | 4.55
33 | PILRLLPQGISPVSQHWATHALYN [W20H] | 2.61
34 | PILRLLPQGISPVSQHWATAALYN [W20A] | 2.62
35 | PILRLLPQGISPVSQHWATQALYN [W20Q] | 1.47
36 | PILRLLPQGISPVSQHWATMALYN [W20M] | 3.46
37 | PILRLLPQGISPVSQNWATWALYN [H16N] | 2.34
38 | PILRLLPQGISPVSQRWATWALYN [H16R] | 3.32
39 | PILRLLPQGISPVSQIWATWALYN [H16I] | 3.38
40 | PILRLLPQGISPVSQDWATWALYN [H16D] | 2.11
41 | PILRLLPQGISPVSQEWATWALYN [H16E] | 1.34
42 | PILRLLPQGISPVSQPWATWALYN [H16P] | 1.45
43 | PILRLLPQGISPVSQKWATWALYN [H16K] | 1.94
44 | PILRLLPQGISPVSQHYATWALYN [W17Y] | 2.15
45 | PILRLLPQGISPVSQHTATWALYN [W17T] | 1.73
46 | PILRLLPQGISPVSQHKATWALYN [W17K] | 2.16
47 | PILRLLPQGISPVSQHAATWALYN [W17A] | 1.72
48 | PILRLLPQGISPVSQHPATWALYN [W17P] | 1.4

Row | Variant | protein stability index
49 | PILRLLPQGISPVSQHVATWALYN [W17V] | 2.59
50 | PILRLLPQGISPVSQHIATWALYN [W17I] | 3.9
51 | PILRLLPQGISPVSQHDATWALYN [W17D] | 1.79
52 | PILRLLPQGISPVSQHRATWALYN [W17R] | 3.1
53 | PILRLLPQGISPVSQHNATWALYN [W17N] | 1.83
54 | PILRLLPQGISPVSQHGATWALYN [W17G] | 1.93
55 | PILRLLPQGISPVSQHLATWALYN [W17L] | 4.01
56 | PILRLLPQGISPVSQHHATWALYN [W17H] | 1.57
57 | PILRLLPQGISPVSQHEATWALYN [W17E] | 2.35
58 | PILRLLPQGISPVSQHMATWALYN [W17M] | 3.18
59 | PILRLLPQGISPVSQHQATWALYN [W17Q] | 3.2
60 | PILRLLPQGISPVSQHFATWALYN [W17F] | 3.63
61 | PILRLLPQGISPVSQHCATWALYN [W17C] | 2.27
62 | PILRLLPQGISPVSQHSATWALYN [W17S] | 2.51
63 | PILRLLPQGISPVKQHWATWALYN [S14K] | 1.43
64 | PILRLLPQGISPVYQHWATWALYN [S14Y] | 2.6
65 | PILRLLPQGISPVVQHWATWALYN [S14V] | 2.62
66 | PILRLLPQGISPVCQHWATWALYN [S14C] | 2.98
67 | PILRLLPQGISPVTQHWATWALYN [S14T] | 1.11
68 | PILRLLPQGISPVQQHWATWALYN [S14Q] | 2.12
69 | PILRLLPQGISPVSQHWATWAHYN [L22H] | 1.58
70 | PILRLLPQGISPVSQHWATWAAYN [L22A] | 3.32
71 | PILRLLPQGISPVSQHWATWARYN [L22R] | 3.48
72 | PILRLLPQGISPVSQHWATWAWYN [L22W] | 4.02

Row | Variant | protein stability index
73 | PILRLLPQGISPVSQHWATWASYN [L22S] | 1.71
74 | PILRLLPQGISPVSQHWATWAYYN [L22Y] | 2.83
75 | PILRLLPQGISPVSQHWATWANYN [L22N] | 1.88
76 | PILRLLPQGISPVSQHWATWAGYN [L22G] | 2.3
77 | PILRLLPQGISPVSQHWATWAKYN [L22K] | 1.52
78 | PILRLLPQGISPVSQHWATWADYN [L22D] | 2.02
79 | PILRLLPQGISPVSQHWATWAPYN [L22P] | 1.57
80 | PILRLLPQGISPVSQHWATWAQYN [L22Q] | 3.18
81 | PILRLLPQGISPVSQHWATWAEYN [L22E] | 1.58
82 | PILRLLPQGIHPVSQHWATWALYN [S11H] | 2.03
83 | PILRLLPQGIIPVSQHWATWALYN [S11I] | 2.53
84 | PILRLLPQGILPVSQHWATWALYN [S11L] | 2.53
85 | PILRLLPQGIAPVSQHWATWALYN [S11A] | 2.83
86 | PILRLLPQGIPPVSQHWATWALYN [S11P] | 1.77
87 | PILRLLPQGICPVSQHWATWALYN [S11C] | 3.31
88 | PILRLLPQGIWPVSQHWATWALYN [S11W] | 1.59
89 | PILRLLPQGIRPVSQHWATWALYN [S11R] | 3.06
90 | PILRLLPQGIEPVSQHWATWALYN [S11E] | 3.05
91 | PILRLLPQGIGPVSQHWATWALYN [S11G] | 2.17
92 | PILRLLPQGIVPVSQHWATWALYN [S11V] | 2.22
93 | PILRLLPQGIDPVSQHWATWALYN [S11D] | 3.26
94 | PILRLLPQGIMPVSQHWATWALYN [S11M] | 1.99

From the supplement of paper PMC10567573
